Test results published in patent US20240101667A1, “METHODS FOR IDENTIFYING LILRB-BLOCKING ANTIBODIES” (THE BOARD OF REGENTS OF THE UNIVERSITY OF TEXAS SYSTEM, priority 2020, published 2024).

Key:
MLL-AF9 AML cells = assay: CFU assay of mouse MLL-AF9 AML cells; format: cell-based
Text: FIGS. 7A-N. Blocking anti-LILRB3 antibody prevents monocytic AML development. (FIG. 7A) Epitope binning of 30 high-affinity IgGs. (FIG. 7B) CFU assay of mouse MLL-AF9 AML cells in the presence of above IgGs (n=3 independent experiments). (FIG. 7C) Binding affinities of the two IgGs from bin #3. (FIG. 7D) Upper: Schematic of treatment. Lower: Percentages of GFP^+ MLL-AF9 mouse AIL cells in peripheral blood (PB), bone marrow (BM), spleen (SPL), and liver (LV) of mice transplanted with AML cells expressing B3-FL or B3delICD and injected with IgG or anti-LILRB3 #1 N297A (n=3 independent mice). (FIG. 7E) Overall survival of mice transplanted with indicated AML cells as above. (FIG. 7F) CFU assay of MLL-AF9 mouse AML cells expressing B3-FL or B3delICD in the presence of IgG or anti-LILRB3 #1 N297A (n=3 independent experiments) (FIG. 7G) Upper: Schematic of treatment. Recipient mice were injected with mouse IgG or anti-mCD8 to deplete CD8 T cells. Lower: Percentages of GFP^+ MLL-AF9 mouse AML cells in peripheral blood (PB), bone marrow (BM), spleen (SPL), and liver (LV) of mice transplanted with AML cells expressing B3-FL or B3delICD and injected with IgG or anti-LILRB3 #1 LALAPG (n=4 mice). (FIG. 7H) Survival of mice as in panel h (n=4 independent mice). (FIG. 7I) Upper: Schematic of treatment. Lower: Whole-body images of NSG mice transplanted with luciferase-expressing THP-1 cells and treated with IgG or anti-LILRB3 #1 N297A (#1NA). (FIG. 7J) Overall survival of the mice shown in panel h (n=3 independent mice). (FIG. 7K) Upper: Schematic of treatment. Lower: Whole-body images of NSG mice transplanted with luciferase-expressing Molm13 cells, injected with activated T cells, and treated with IgG or #1NA. (FIG. 7L) Luciferase signaling as a function of time in mice treated as described in panel k. (FIG. 7M) Overall survival of mice treated as described in panel k (n=3 independent mice). (FIG. 7N) Analyses of T cells in peripheral blood of mice treated as described in panel 1 at 22 days after Molm13 AML cell transplantation. Upper: Flow cytometry analyses. Lower: Plot of T cell percentages (n=3 independent mice). The data are presented as mean±s.e.m, and p values were calculated by two-tailed t-test except for FIG. 7E, FIG. 7H, FIG. 7J and FIG. 7M by log-rank test.
FIGS. S6A-J. Development of anti-LILRB3 blocking antibodies for suppressing AML development. (FIG. S6a) Upper: Flow chart of strategy for development of fully humanized antibodies against LILRB3. Lower: The identified antibodies were tested in the LILRB3 chimeric receptor reporter cell assay. (FIG. S6b) ELISA results for LILRB3 binders. (FIG. S6c) EC50 values of the anti-LILRB3 antibodies based on ELISA. (FIG. S6d) Affinities of antibodies #32, #33, #67, and #45 to LILRB3 as determined by Octet. (FIG. S6e) Cross-reactivity of the anti-LILRB3 antibodies with LILRAs evaluated with LILRA binding analyses. (FIG. S6f) Cross-reactivity of the anti-LILRB3 antibodies with other LILRBs evaluated with LILRB binding analyses. (FIG. S6g) Interaction with TRAF2 contributes to the effect of LILRB3 on AML development. […] (FIG. S6j) NF-κB signaling target gene expression (measured by qPCR) in THP-1 cells from BM of xenografted NSG mice treated with anti-LILRB3 #1NA or IgG (n=3 individual samples). […]

THP-1 cells = assay: NSG mice xenografted with THP-1 cells; format: in vivo, mouse
Text: FIGS. 7A-N. Blocking anti-LILRB3 antibody prevents monocytic AML development. (FIG. 7A) Epitope binning of 30 high-affinity IgGs. (FIG. 7B) CFU assay of mouse MLL-AF9 AML cells in the presence of above IgGs (n=3 independent experiments). (FIG. 7C) Binding affinities of the two IgGs from bin #3. (FIG. 7D) Upper: Schematic of treatment. Lower: Percentages of GFP^+ MLL-AF9 mouse AIL cells in peripheral blood (PB), bone marrow (BM), spleen (SPL), and liver (LV) of mice transplanted with AML cells expressing B3-FL or B3delICD and injected with IgG or anti-LILRB3 #1 N297A (n=3 independent mice). (FIG. 7E) Overall survival of mice transplanted with indicated AML cells as above. (FIG. 7F) CFU assay of MLL-AF9 mouse AML cells expressing B3-FL or B3delICD in the presence of IgG or anti-LILRB3 #1 N297A (n=3 independent experiments) (FIG. 7G) Upper: Schematic of treatment. Recipient mice were injected with mouse IgG or anti-mCD8 to deplete CD8 T cells. Lower: Percentages of GFP^+ MLL-AF9 mouse AML cells in peripheral blood (PB), bone marrow (BM), spleen (SPL), and liver (LV) of mice transplanted with AML cells expressing B3-FL or B3delICD and injected with IgG or anti-LILRB3 #1 LALAPG (n=4 mice). […] The data are presented as mean±s.e.m, and p values were calculated by two-tailed t-test except for FIG. 7E, FIG. 7H, FIG. 7J and FIG. 7M by log-rank test. […]

[1] = Myeloid LysM-Cre driven LILRB3-transgenic C57BL/6 mice, hematopoiesis; format: in vivo, mouse
Method: FIGS. S7A-C. […] (FIG. S7a) Schematic of generation of myeloid-specific LILRB3 transgenic mice. (FIGS. S7b-c) LILRB3 is expressed on myeloid cells in peripheral blood (PB), spleen (SPL) and bone marrow (BM) of LysM-Cre driven LILRB3 transgenic mice, which were treated by anti-LILRB3 #1 antibody (n=2 mice) or IgG (n=3 mice). Shown are representative flow cytometry plots (FIG. S7b) and result summary (FIG. S7c).
LILRB3 transgenic mice. LILRB3 cDNA was constructed into pR26 CAG AsiSI/MluI. Then the plasmid was purified with high concentration in the absence of endotoxin. Cas9 RNA, gRNA targeting mouse Rosa26 locus and the LILRB3 plasmid co-injected into mouse oocytes at the transgenic core facility of UTSW. The LILRB3 positive mice were identified by LILRB3 specific primers and crossbred with LysMcre mice (JAX, 004781). The LILRB3^+LysMcre^+ mice were analyzed with co-expression of LILRB3 and Mac-1 or Gr-1 in peripheral blood, spleen and bone marrow.

B1: anti-LILRB3 #1 N297A: IgG #1 with Fc glycosylation N297A mutation, defective Fc-mediated effector functions (antibody, V domains shown)
VH: EVQLVESGGGVVQPGRSLRLSCAASGFTFSSYGMHWVRQAPGKGLEWVAFIRYDGSNKYYADSVKGRFTISRDNSKNTLYLQMNSLRAEDTAVYYCAKAGFSGWYYYGMDVWGQGTMVTVSS
VL: DIVMTQSPSSLSASVGDRLTITCRASQSISTYLNWYQQKPGKAPKLLIYGASSLQSGVPSRFSGSGSGTDFTLTISSLQPEDFATYFCQQSYGLPLTFGGGTKVDIK
- CFU formation of AML cells expressing mutant LILRB3 that cannot interact with TRAF2 (MLL-AF9 AML cells; AAA mutant (QEE509-511AAA)): did not decrease CFU formation
- CFU formation by B3-FL AML cells (MLL-AF9 AML cells; versus IgG): decreased CFU formation
- leukemia development (THP-1 cells; NSG mice, THP-1 xenograft, versus controls): significantly delayed leukemia development
- LILRB3 signaling in THP-1 cells (NF-κB target gene expression by qPCR) (THP-1 cells; THP-1 cells from BM of xenografted NSG mice): decreased
- normal hematopoiesis and leukocytosis ([1]; LILRB3 transgenic mice): did not affect normal hematopoiesis and leukocytosis
- toxicity ([1]; suggested from the transgenic mice): low toxicity
